{"source": "paper PMC12846707", "about": "“Structural and Functional Analysis of Porcine CR1-like Proteins in C4b-Mediated Immune Responses” (Veterinary Sciences, 2025)", "binders": {"B1": {"name": "Recombinant C4b α chain (domain or fragment)", "chain": "AMELLQEEELIEEDDIPVRSFFPENWLWRVEEVPHSLQLSLLLPDSLTTWEIHGVSLSKSTGLCVATPARVRVFREFHLHLRLPVSIHRFEQLELRPVLYNYLDKDVPVSVHVSPVEGLCLAGGGGLAQQVLVPAGSARPVGFSVVPISAAAVSLKVVARGSFDFPVGDAVSKILQIANEGAIHQEELVYALNPQNVLGRNLEIPGHSDPNVIPDGDFRSFVRLTASDPLDTLGSEGALSPGGLASLLRLPRGCAEQTMFYLAPTLAASRYLDKTEQWSTLPPETKDHAVDLIQKGYTRIQEFRKNDGSYGAWLHRESSTWLTAFVLKVLSLAQEQVGGSPEKLQETAAWLLLQQKEDGSFHDPCPVIHRDMQGGLVGNDEKVALTAFVVIALHHGLAVFQDRNAEQFKRVENAISTANDFLGEKVSSGLLGSHAAAISAYALSLSGAPEQLQDIAHNNLMAMAQKIGDHLFWGTVPSSQSNTLSPTPAPQRPTDPMPQAPALWIETTAYALLHLLIREGKAEMADQTASWLTRQGSYKGGFRSTQDTVIALDALSAYWILSHTTEEKELNVTLSSMSRGGFKSHVVRLTNHQVKGLEEELQFSLGSKINVKVGGNSKGTLKILRAYNVIDLKNTTCQDLQIEVTVKGHVEYMLEANEDYEEYEYEDLPAQDDPGAHSQPVTPLQLFDG"}, "B2": {"name": "Recombinant CR1-like CCPs 1-3 (domain or fragment)", "chain": "not shown"}}, "assay_in_all_cases": "SPR; Biacore 8K, single-cycle; C4bα and C4bβ covalently immobilised on CM5 chip (about 1500 RU); CR1-like fragments or mutant as mobile phase, 1.56 × 10^-2 to 4 μM; 25 °C; 10 mM HEPES pH 7.4, 150 mM NaCl, 0.05% Tween-20; apparent KD = kd/ka", "details_in_all_cases": "both partners purified", "key": {"[1]": {"biological_target": "T1, Recombinant CR1-like CCPs 12-14 (pig)", "T1 construct": "porcine CR1-like, CCP domains 12-14; Section 2.12 describes 6His-sumo (N-terminal) and flag (C-terminal) tags and insect cells for 'CR1-like fragments' in general"}, "[2]": {"biological_target": "T2, Recombinant C4b β chain (pig)", "T2 construct": "beta chain of porcine complement C4b, expressed as a separate chain; source: Escherichia coli (pET28a), purified (Ni-NTA, SP-HP cation exchange); not shown: 6His, N-terminal, kept; Flag-ppase, N-terminal, kept"}, "[3]": {"biological_target": "B1"}}}
{"binder": "B1", "values": [{"measurement": "Kd", "setting": "[1]", "value": 317, "unit": "nM"}]}
{"binder": "B2", "values": [{"measurement": "Kd", "setting": "[2]", "value": 173, "unit": "nM"}, {"measurement": "Kd", "setting": "[3]", "value": 226, "unit": "nM"}]}
